According to patent US20110044994A1:

B1: 1503_H05 (PG16) (antibody, V domains shown)
VH: QEKLVESGGGVVQPGGSLRLSCLASGFTFHKYGMHWVRQAPGKGLEWVALISDDGMRKYHSDSMWGRVTISRDNSKNTLYLQFSSLKVEDTAMFFCAREAGGPIWHDDVKYYDFNDGYYNYHYMDVWGKGTIVTVSS
VL: QSALTQPASVSGSPGQTITISCNGTRSDVGGFDSVSWYQQSPGKAPKVMVFDVSHRPSGISNRFSGSKSGNTASLTISGLHIEDEGDYFCSSLTDRSHRIFGGGTKVTVLG
B2: 1469_M23 (PG16) (antibody, V domains shown)
VH: QEKLVESGGGVVQPGGSLRLSCLASGFTFHKYGMHWVRQAPGKGLEWVALISDDGMRKYHSDSMWGRVTISRDNSKNTLYLQFSSLKVEDTAMFFCAREAGGPIWHDDVKYYDFNDGYYNYHYMDVWGKGTTVTVSS
VL: QSALTQPASVSGSPGQTITISCNGTRSDVGGFDSVSWYQQSPGRAPKVMVFDVSHRPSGISNRFSGSKSGNTASLTISGLHIEDEGDYFCSSLTDRSHRIFGGGTKLTVLG
B3: 1456_A12 (PG16) (antibody, V domains shown)
VH: HEQLVEAGGGVVQPGGSLRLSCLASGFTFHKYGMHWVRQAPGKGLEWVALISDDGMRKYHSDSMWGRVTISRDNSKNTLYLQFSSLRVEDTAMFFCAREAGGPIWHDDVKYYDFNDGYYNYHYMDVWGKGTKVTVSS
VL: QSALTQPASVSGSPGQTITISCNGTSRDVGGFDSVSWYQQSPGKAPKVMVFDVSHRPSGMSNRFSGSKSGNTASLTISGLHIEDEGDYFCSSLTDRSHRIFGGGTKLTVLG
B4: 1489_I13 (PG16) (antibody, V domains shown)
VH: QEQLLESGGGVVQPGGSLRLSCLASGFTFHKYGMHWVRQAPGKGLEWVALISDDGMRKYHSNSMWGRVTISRDNSKNTLYLQFSSLKVEDTAMFFCAREAGGPIWHDDVKYYDFNDGYYNYHYMDVWGKGTTVTVSS
VL: QSALTQPASVSGSPGQTITISCNGTSSDVGGFDSVSWYQQSPGKAPKVMVFDVSHRPSGISNRFSGSKSGNTASLTISGLHIEDEGDYFCSSLTDRSHRIFGGGTKVTVLG

Experiments:
Experiment in all cases: cell-based or functional assay
[1] = biological target: 92RW020 pseudovirus Env (HIV-1)
[2] = biological target: JR-FL (E168K) pseudovirus Env (HIV-1)
[3] = biological target: JR-CSF (I309A) pseudovirus Env (HIV-1) (UniProt P20871)
[4] = biological target: JR-CSF (Y318A) pseudovirus Env (HIV-1) (UniProt P20871)
[5] = biological target: ADA pseudovirus Env (HIV-1)
[6] = biological target: JR-CSF pseudovirus (HIV-1 Env on the virions) (HIV-1) (UniProt P20871)

| Binder | IC50 (ug/ml), pseudovirus neutralization, TZM-bl assay [1] | IC50 (ug/ml), pseudovirus neutralization, TZM-bl assay [2] | IC50 (ug/ml), pseudovirus neutralization, TZM-bl assay [3] | IC50 (ug/ml), pseudovirus neutralization, TZM-bl assay [4] | IC50 (ug/ml), pseudovirus neutralization, TZM-bl assay [5] | IC50 (ug/ml), pseudovirus neutralization, TZM-bl assay [6] |
| --- | --- | --- | --- | --- | --- | --- |
| B1 | 0.02 µg/mL | 0.002 µg/mL | > 1 µg/mL | > 1 µg/mL | 0.003 µg/mL | 0.001 µg/mL |
| B2 | 0.05 µg/mL | 0.005 µg/mL | > 1 µg/mL | > 1 µg/mL | 0.005 µg/mL | 0.002 µg/mL |
| B3 | 0.05 µg/mL | 0.003 µg/mL | > 1 µg/mL | > 1 µg/mL | 0.005 µg/mL | 0.001 µg/mL |
| B4 | 0.03 µg/mL | 0.005 µg/mL | > 1 µg/mL | > 1 µg/mL | 0.008 µg/mL | 0.002 µg/mL |
